Key:
[1] = target: T1, intact K18, native (band 3 of cytokeratin purified from colon cancer tissue; K18 in fixed cancer cells) (human, UniProt P05783 2-430, acetylated serine at its N-terminus); test: strips of a PVDF blot of SDS-PAGE-separated cytokeratin purified from colon cancer tissue
T1 construct: Natural protein, no tag; also called normal K18; cytokeratin 18
T1 sequence: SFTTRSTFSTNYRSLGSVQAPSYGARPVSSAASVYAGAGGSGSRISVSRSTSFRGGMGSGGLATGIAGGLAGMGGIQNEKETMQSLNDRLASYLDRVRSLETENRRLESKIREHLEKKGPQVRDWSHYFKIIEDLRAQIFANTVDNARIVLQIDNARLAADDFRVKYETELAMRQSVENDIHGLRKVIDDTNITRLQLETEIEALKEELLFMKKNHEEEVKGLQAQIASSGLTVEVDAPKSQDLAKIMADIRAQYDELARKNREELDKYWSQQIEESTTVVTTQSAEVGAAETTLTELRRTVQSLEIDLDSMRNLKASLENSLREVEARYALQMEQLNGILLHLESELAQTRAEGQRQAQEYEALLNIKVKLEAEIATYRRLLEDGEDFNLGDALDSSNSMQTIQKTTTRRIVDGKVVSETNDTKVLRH

[2] = target: T2, K8(1-65) GST fusion protein (human, UniProt P05787 2-66); test: Western blot of SDS-PAGE-separated K8 GST fusion proteins, stained with COU-1 alone
T2 construct: Alone, not complexed; not shown: glutathione S-transferase (GST) fusion partner, modified pGEX-2T vector
T2 sequence: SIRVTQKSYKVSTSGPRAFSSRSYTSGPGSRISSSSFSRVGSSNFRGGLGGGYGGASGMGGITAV

[3] = target: T3, recombinant intact K8 (GST fusion protein) (human, UniProt P05787 2-483); test: as above
T3 construct: Alone, not complexed with K18; GST placed first as in pGEX vectors; also called full length K8; cytokeratin 8; not shown: glutathione S-transferase (GST) fusion partner, modified pGEX-2T vector
T3 chain: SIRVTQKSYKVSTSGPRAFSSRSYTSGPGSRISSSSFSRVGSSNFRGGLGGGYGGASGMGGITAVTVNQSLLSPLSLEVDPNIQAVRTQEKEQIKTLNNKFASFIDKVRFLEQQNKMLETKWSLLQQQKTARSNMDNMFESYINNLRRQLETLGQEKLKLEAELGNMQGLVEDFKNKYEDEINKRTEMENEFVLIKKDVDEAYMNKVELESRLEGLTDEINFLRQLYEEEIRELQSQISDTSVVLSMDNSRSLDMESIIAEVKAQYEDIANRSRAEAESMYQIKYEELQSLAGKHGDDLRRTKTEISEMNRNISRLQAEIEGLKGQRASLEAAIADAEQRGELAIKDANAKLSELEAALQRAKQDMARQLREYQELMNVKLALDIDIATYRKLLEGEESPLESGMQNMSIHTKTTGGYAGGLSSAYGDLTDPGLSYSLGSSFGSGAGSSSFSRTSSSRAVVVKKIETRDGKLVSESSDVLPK

K8 (1-367) = target: T4, K8 (1-367); test: as above
T4 construct: not shown: N-terminal GST and its linker (modified pGEX-2T)
T4 chain: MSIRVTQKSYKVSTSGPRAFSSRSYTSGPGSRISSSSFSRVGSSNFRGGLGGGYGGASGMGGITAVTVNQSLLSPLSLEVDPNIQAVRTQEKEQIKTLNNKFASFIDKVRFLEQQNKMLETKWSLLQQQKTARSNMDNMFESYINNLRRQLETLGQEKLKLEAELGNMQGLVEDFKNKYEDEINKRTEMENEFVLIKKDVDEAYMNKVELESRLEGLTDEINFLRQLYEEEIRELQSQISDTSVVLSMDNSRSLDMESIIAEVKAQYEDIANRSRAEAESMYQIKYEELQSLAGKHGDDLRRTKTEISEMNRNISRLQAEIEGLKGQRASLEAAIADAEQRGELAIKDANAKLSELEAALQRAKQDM

K8 (1-85) = target: T5, K8 (1-85); test: as above
T5 construct: also called K8(1-85) GST fusion protein; not shown: N-terminal GST carrier (modified pGEX-2T) and its linker
T5 chain: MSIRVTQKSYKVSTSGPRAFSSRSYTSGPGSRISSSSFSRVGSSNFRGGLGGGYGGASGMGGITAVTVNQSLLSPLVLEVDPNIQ

K8 (1-352) = target: T6, K8 (1-352); test: as above
T6 construct: not shown: N-terminal GST and its linker (modified pGEX-2T)
T6 chain: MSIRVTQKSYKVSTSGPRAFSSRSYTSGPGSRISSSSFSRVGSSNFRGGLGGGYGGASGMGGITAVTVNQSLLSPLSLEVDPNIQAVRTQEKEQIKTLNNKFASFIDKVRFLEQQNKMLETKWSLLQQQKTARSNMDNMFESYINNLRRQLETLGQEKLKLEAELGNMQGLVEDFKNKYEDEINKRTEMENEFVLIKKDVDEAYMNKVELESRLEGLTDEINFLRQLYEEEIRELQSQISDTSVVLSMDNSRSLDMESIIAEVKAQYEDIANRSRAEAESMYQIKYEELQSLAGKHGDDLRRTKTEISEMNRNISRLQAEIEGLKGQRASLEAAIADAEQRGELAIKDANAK

K8 (1-233) = target: T7, K8 (1-233); test: as above
T7 construct: not shown: N-terminal GST carrier (modified pGEX-2T) and any linker
T7 chain: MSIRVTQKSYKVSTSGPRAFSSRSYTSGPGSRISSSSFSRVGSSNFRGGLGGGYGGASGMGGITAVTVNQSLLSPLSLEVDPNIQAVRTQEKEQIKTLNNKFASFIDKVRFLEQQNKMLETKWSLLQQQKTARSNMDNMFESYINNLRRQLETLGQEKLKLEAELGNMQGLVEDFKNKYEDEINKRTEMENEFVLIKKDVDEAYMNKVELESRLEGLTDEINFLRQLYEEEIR

B1: human monoclonal IgM antibody COU-1 (antibody, V domains shown)
VH: GAEVKKPGASVKVSCKASDYTFSSYYMHWVRQAPGQGLEWMGIINPSGGSTSYAQKFQGRVTMTRDTSTNTVYMELSSLRSEDTAVYYCARDQVVVAATLSNYGMDVWGQGTTVTVSS
VL: ELTQSPGTLSLSPGERATLSCRASQSVSSSYLAWYQQKPGQAPRLLIYDASNRATGIPARFSGSGSGTDFTLTISSLEPEDFAVYYCQQGTNWGIAFGQGTRLDIKR
notes: Human IgM with kappa light chain, secreted by hybridoma B9165 (ECACC 87040201), purified from culture supernatant; also called HMab COU-1; HuMab COU-1
[1]
  binding result: no binding (tested: 5 µg/ml COU-1 (P-0279))
[2]
  binding result: no binding (tested: 5 µg/ml COU-1 (P-0279))
[3]
  binding result: no binding (tested: 5 µg/ml COU-1 (P-0279))
K8 (1-367)
  binding result: no binding (tested: 5 µg/ml COU-1 (P-0279))
K8 (1-85)
  binding result: no binding (tested: 5 µg/ml COU-1 (P-0279))
K8 (1-352)
  binding result: no binding (tested: 5 µg/ml COU-1 (P-0279))
K8 (1-233)
  binding result: no binding (tested: 5 µg/ml COU-1 (P-0279))
